The record followed here is patent publication US20030064071A1 (NEW YORK UNIVERSITY, published 2003).

This assay concerns the target T1, M-tropic HIV-1MN envelope glycoprotein gp120 (HIV-1 (strain MN), UniProt P05877 32-513).
T1 construct: domain: gp120; also called HIV-1 gp120; HIV-1MN gp120
In words: fluorescent bead adhesion assay, flow cytometry. In general terms: A flow cytometer gives signals particle by particle.

B1: DC-SIGN (receptor)
chain: MSDSKEPRLQQLGLLEEEQLRGLGFRQTRGYKSLAGCLGHGPLVLQLLSFTLLAGLLVQVSKVPSSISQEQSRQDAIYQNLTQLKAAVGELSEKSKLQEIYQELTQLKAAVGELPEKSKLQEIYQELTRLKAAVGELPEKSKLQEIYQELTWLKAAVGELPEKSKMQEIYQELTRLKAAVGELPEKSKQQEIYQELTRLKAAVGELPEKSKQQEIYQELTRLKAAVGELPEKSKQQEIYQELTQLKAAVERLCHPCPWEWTFFQGNCYFMSNSQRNWHDSITACKEVGAQLVVIKSAEEQNFLQLQSSRSNRFTWMGLSDLNQEGTWQWVDGSPLLPSFKQYWNRGEPNNVGEEDCAEFSGNGWNDDKCNLAKFWICKKSAASCSRDEEQFLSPAPATPNPPPA
notes: also called THP-DC-SIGN (THP-1 transfectant)
For the molecule B1, the binding result is listed as “binds”.
